Assay results: the nanobody polyreactivity screen of Harvey et al. (2022)

Experiment: yeast display, Sf9 membrane polyspecificity reagent, FACS + sequencing; frameworks hold sequencing errors
In short: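 A nanobody's polyreactivity label depends on the gate it was sorted from. Yeast display cells were stained with 10% biotinylated, detergent-solubilized Sf9 membrane reagent for 1 hour at 4 °C, enriched on streptavidin microbeads and sorted by FACS. The low and high (top ~1%) gates were set on anti-HA fluorescence for expression and streptavidin fluorescence for reagent binding.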

Sequence	polyreactivity (PSR sort gate)
QVQLVESGGGLVQAGGSLRLSCAASGSNFPLNPMGWYRPSPGKERELVAAISSSTGSTSYADSVKGRFTISRDNAKNTVYLQMNSLKPEDTAVYYCAAETPYIVDYWGQGTQVTVSS	high polyreactivity
QVQLVESGGGLVQAGGSLRLSCAASGSNFQNYAMGLYIQAPGKERELVAAISSSGTGTSYADSVKGRFTISRDNAKNTVYLQMNSLKPEDTAVYYCAADYLDYADSAYYYWGQCTQVTVSS	low polyreactivity
QVQLVESGGGLVQAGGSLRLSCAASGSNFQYVYAMGWYRQAPGKERELVAAINGGSGSTYYADSVKGSFTISRDNAKNTVYLQMNSLKPEDTAVYYCNRDYEYPTYPHDYWGQGTQVTVSS	low polyreactivity
QVQLVESGGGLVQAGGSLRLSCAASGSNFRGYTMGWYRQAPGKERELVAAISLSGGSTYYADSVKGRFTISRDNAKNTVYLQMNSLKPEDTAVYYCAASLPWYDEFDYWGQGTQVTVSS	low polyreactivity
QVQLVESGGGLVQAGGSLRLSCAASGSNFRYNAMGWYRQAPGKERALVAAISGRGTSTYYADSVKGRFTISRDNAKNTVYLQMNSLKPEDTAVYYCAAVYFRTFLVEYYYWGQGTQVTVSS	high polyreactivity
QVQLVESGGGLVQAGGSLRLSCAASGSNFRYYAMGWDRQAPGKERELVAAISYSGGTTYYADSVKGRFTISRDNAKNTVYLQMNSLKPEDTAVYYCAVPLIGVDGYAYDYWGQGTQVTVSS	low polyreactivity
QVQLVESGGGLVQAGGSLRLSCAASGSNFSPNAMGWYRQAPGKERELVAAIDTRDGTTYYADSVKGRFTISRDNAKNTVYLQMNSLKPEDTAVYYCAAGGPVRYGIATPTGAKRFGYWGQGTQVTVSS	low polyreactivity
QVQLVESGGGLVQAGGSLRLSCAASGSNFTFYAMGWYRQAPGKERELVAAISKGGDRTYYADSVKGRFTISRDNAKNTVYLQMNSLKPEDTAVYYCARLVRPGRFGDGDYWGQGTQVTVSS	low polyreactivity
QVQLVESGGGLVQAGGSLRLSCAASGSNFWRNVMGWYRQAPGKERELVAAISSGGSTYYADSVKGRFTISRDNAKNTVYLQMNSLKPEDTEVYYCAAPRYDYWGQGTQVTVSS	high polyreactivity
QVQLVESGGGLVQAGGSLRLSCAASGSNFWSNAMRWYRQAPGKERELVATIDDDVGSTYYADSVKGRFTISRDNAKNTVYFQMNSLKPEDTAVYYCAADTSGADAYTKVRDGYDYWGQGTQVSVSS	low polyreactivity
QVQLVESGGGLVQAGGSLRLSCAASGSNFYDYAMGWYRQAPGKERELVAAISSGGGTYYADSVKGRFTISRDNAKNTVYLQMNSLKPEDTAVYYCNADTYEWFSDFSEDSYDYWGQGTQVTVSS	low polyreactivity
QVQLVESGGGLVQAGGSLRLSCAASGSNFYPYTMGWYRQAPGKERELVAAISGGGRTYYADSVKGRFTISRDNAKNTVFLQMNSLNPEDTAVYYCAARYVYRWLVGKYEYWGQGTQVTLSS	high polyreactivity
QVQLVESGGGLVQAGGSLRLSCAASGSNFYQYAMGWYRPAPRKERELVAAISVRAGITYYADSVTGRFTISRDNAKYTVYLQMNSLKPEDTAVYYCAKDHWTTSYDEGDYWGQGTQVTVSS	low polyreactivity
QVQLVESGGGLVQAGGSLRLSCAASGSNFYSYAMGWYRQAPGKESELVAAITKSSGSTYYAASVKGRFTISRDYAKNTVYLQMNSLKPEDTAVYYCAATRYRPVRLYYWGQGTQVTVSS	high polyreactivity
QVQLVESGGGLVQAGGSLRLSCAASGSNFYVYAMGCYRQAPGKERELVAAINYDSGSTYYADSVKGRFTISRDTAKNTVYLQMNSLIPEDTAVYYCGTDGVNPFYAYDYWGQGTQVTVSS	low polyreactivity
QVQLVESGGGLVQAGGSLRLSCAASGSNFYVYAMLWYRQAPGKERELVADITTRDGDTYYADSVKGRFTISRDNAKNTVYLQMNSLKPEDTAVYYCAADLNAYPLRAYDYWGQGTQVTVSS	low polyreactivity
QVQLVESGGGLVQAGGSLRLSCAASGSNFYYKAMGWYRQAPGKERELVAAITSGDSTNYADSVKGRFTISRDNAKNTVYLQMNSLKPEDTAVYYCAADYLAALTYYRTYDYWGQGTQVTVSS	low polyreactivity
QVQLVESGGGLVQAGGSLRLSCAASGSNIATYAMGWYRQAPWKETELVAAISSTGRTYYADSVKGRFTISRDNAKNTVYLQMTRLKPVDTAVYYCNTVRYRSRYGMDYWGQGTQVTVSS	high polyreactivity
QVQLVESGGGLVQAGGSLRLSCAASGSNIERNAMGWYIQAPGKERELVANITWSGVSTYYADSVKGRFTISRDNAKNTVYLQMNSLKPEDTAVYYCNADYSYRHWYDPGQYGQAMGYWGQGTQVTVSS	low polyreactivity
QVQLVESGGGLVQAGGSLRLSCAASGSNIFQYDMGWYRQAPGKERELVAAITISGGSTYYADSVKGRFTISRDNAKNTVYLQLNILKPEDTAVYYCNADYEWYLGGYDYWGQGTQVTVSS	high polyreactivity
QVQLVESGGGLVQAGGSLRLSCAASGSNLPYYAMGWYRQAPVKERELVAAISYSGGSTYYADSVKGRFTISRDNAKNPVFLQMYSLKPEVTAVYDCNAVVRSPAHGFWGQCTQVTVSS	high polyreactivity
QVQLVESGGGLVQAGGSLRLSCAASGSNLVQNAMGWYRQAPGKERELVAAINWSGASTYYADSVKGRFTISRDNAKNTVYLQMNSLKPEDTAVYYCATVTLFFTDYYSWADVYTEYDYWGQGTQVTVSS	low polyreactivity

Sequence	polyreactivity (PSR sort gate)
QVQLVESGGGLVQAGGSLRLSCAASGSNMGDNGMGWYRKAPGKERELVAAITNGGSTTYADSVKGRFTISRDNAKNTVYLQMNSLKPEDTAVYYCAADQQDRDQYSDWTEYDYWGQGTQVTVSS	low polyreactivity
QVQLVESGGGLVQAGGSLRLSCAASGSNYRNAMGWYRQAPGKERELVAAISSSGGRTYYADSVKGRFTISRDNAKNTVYLKMNSLKPEDTAVYYCAKVGPYWSRGKYWGQGTQVTVSS	high polyreactivity
QVQLVESGGGLVQAGGSLRLSCAASGSPFFPYAMGGYRQAPGKERELVAGISSDGGTSYADSVKGRFTISRDNAKNTVYLQMNSLKPEDTAVYYCAKETIGQDPVSGAWARHEYDYWGQGTQVTVSS	low polyreactivity
QVQLVESGGGLVQAGGSLRLSCAASGSPFKRYAMGWYRQAPGKERELVASITRRGGSTYYADSVKGRFTISRDNAKNTVYLKMNSLKPEDSAVYYCAALQGRSSARQDSYGYWGQGTQVTVSS	high polyreactivity
QVQLVESGGGLVQAGGSLRLSCAASGSPFYNYAMGWYRQAPGKERELVAAIRNGGGTNYADSVKGRFTISRDNAKNTVYLQMNSLKPEDTAVYDCNKAYGVSGTGVDYWGQGTQVTVSS	low polyreactivity
QVQLVESGGGLVQAGGSLRLSCAASGSSFAENAMGWSRQAPGKERELVATIRSGGSTYADSVKGRFTISRDNAKKTVNLQMNILKPEDTAVYYCATDRYPHSATPGDYWGQGTQVTVSS	low polyreactivity
QVQLVESGGGLVQAGGSLRLSCAASGSSFGSNAMGWSRPAPGKERELVAAITGGDVSTYYADSVKGRFTISRDNAKNTVYLQMNSLKPEDTAVYYCNAEYARPAMDYWGQGTQVTVSS	low polyreactivity
QVQLVESGGGLVQAGGSLRLSCAASGSSFGYYAMGWYRPAPGKERELVAAITRRGVNTYYADSVKGRFTISRDNAKNTVYLQMNSLKPEDTAVYYCAATWWQYAQGLHRYDYWGQGTQVTVSS	high polyreactivity
QVQLVESGGGLVQAGGSLRLSCAASGSSFPENAMGWYRQAPGKERQLVAGISRSDAGTHYADSVKGRFTISRDNAKNTVYVQMNSLKPEDTAVYYFDAGGTDEDRLTSWVGLFPAYYYWGQATQVTVSS	low polyreactivity
QVQLVESGGGLVQAGGSLRLSCAASGSSFSRNAMGWYRQAPGKESELVAAISWSGGRTYYAASVKGRFTISRDNAKNTVYLQMNSLKPEDTAVYYCAKGYSYHWYHVTYYSLGQGTQVTVSS	high polyreactivity
QVQLVESGGGLVQAGGSLRLSCAASGSSFSSYAMGRYRQAPAKERELVASNNIGGSTNYADSVKGRFTISRDNAKITVYLHMNSLKPEDTAVYSCNAVGYNVGGEGDYWGQGTQVTVSS	high polyreactivity
QVQLVESGGGLVQAGGSLRLSCAASGSSFSWNAMGWYSQAPGKERELVAAISKRGTSTYYADSVKGRFTISRDNAKKTVYLQMNSLKPEDTAVYYCAARRYYGVYYAFYYWGQGTQVTVSS	high polyreactivity
QVQLVESGGGLVQAGGSLRLSCAASGSSFVRNGMGWYRQAPGKERELVASIRGSGSRTYYADSVKGRFTISRDNAKNTVYLQMNSLKPEDTAVYYCAAGYWRYYHYPPASGYWGQGTQVTVSS	high polyreactivity
QVQLVESGGGLVQAGGSLRLSCAASGSSFWSNAMGWYRQAPGKEREFVAAINWSGDNTYYADSVKGRFTISRDNSKNKVYLKLISLKPEDTAVYYCIGVGDYPKYSGGFDYCGQGTQVTVSS	low polyreactivity
QVQLVESGGGLVQAGGSLRLSCAASGSTCYSNAMGWYRQAPGNERELVAGISGSGGSTYYADSVKGRFTISRDNAKNTVYLHMNSLKPEDTAVYYCNARKTRSYFRFDSWGQGTQVTVSS	low polyreactivity
QVQLVESGGGLVQAGGSLRLSCAASGSTDSNAMGWNRQAPGKEREMVAPISGTGSRTYYADSVKGRFTISRDNAKNTVYFQLNSLKTEDTAVYYCNKDVYGYSRTGPRGYDYWGQGTQVTVSS	high polyreactivity
QVQLVESGGGLVQAGGSLRLSCAASGSTFAANAMGWYRPAPGKERELVAAITSSGGSTYYADSVKGRFTISRDNAKNTVYLQMNSLKPEDTAVYYCNKDIERYVRIYDSWGQGTQVTVSS	low polyreactivity
QVQLVESGGGLVQAGGSLRLSCAASGSTFAANAMGWYRQAPGKERELVAAIDSSTGSTYYADSVKGRFTISRDIAKNNVFLQMNRLKPEDTAVYYCNKTSFLVKLDYWGQGTQVTVSS	low polyreactivity
QVQLVESGGGLVQAGGSLRLSCAASGSTFAANAMGWYRQAPGKERELVAAITSSGGSTYYADSVKGRFTISRDNAKNTVYLQLNSLKPEVTAVYYCNKDIERYVRIYDSWGQGTQVTVSS	low polyreactivity
QVQLVESGGGLVQAGGSLRLSCAASGSTFAFNAMGWYRQAPGKEREFVARITWTYGSTYYADSVKGRFTISRDNAKNTVYLQMNSLKPEDTAVYYCARDPTEQAIARWTYDYWGQGTQVTVSS	low polyreactivity
QVQLVESGGGLVQAGGSLRLSCAASGSTFAFNAMGWYRQAPGKERELVAGITWSSGSTYYADSVKGRFTISRDNAKNTVYLQMNSLKPEDTAVYYCAVSGTRTIWGQGTQVTVSS	high polyreactivity
